Results reported in patent US20100093076A1, “SOLUBLE IL-27 RECEPTOR” (priority 2006, published 2010).

What was measured:
huIL-27 = target: T1, huIL-27 (Homo sapiens, UniProt Q14213+Q8NEV9); test: Phospho-STAT3 (BIO-PLEX) neutralization of IL-27 by soluble receptors, total human PBMCs; type: cell-based; conditions: ligand huIL-27 at EC90 (2 nM)
T1 construct: purchased R&D Systems
T1 sequence (Q8NEV9 29-243): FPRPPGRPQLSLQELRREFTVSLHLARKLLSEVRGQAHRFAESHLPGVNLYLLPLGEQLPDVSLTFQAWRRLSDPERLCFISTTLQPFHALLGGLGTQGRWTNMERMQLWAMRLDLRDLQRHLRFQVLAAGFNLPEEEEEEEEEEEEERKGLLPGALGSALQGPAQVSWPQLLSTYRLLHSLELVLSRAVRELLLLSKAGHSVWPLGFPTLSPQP
T1 sequence (Q14213 21-229): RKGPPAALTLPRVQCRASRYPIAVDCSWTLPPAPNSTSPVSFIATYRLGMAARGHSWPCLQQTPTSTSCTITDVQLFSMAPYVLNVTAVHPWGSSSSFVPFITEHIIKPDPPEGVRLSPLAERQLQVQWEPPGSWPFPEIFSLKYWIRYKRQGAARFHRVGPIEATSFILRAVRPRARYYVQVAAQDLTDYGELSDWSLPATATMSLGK
Excerpt: (§1) Whole mouse spleens were harvested from C57 B1/6 mice and washed two times with 1×PBS before being plated out at 2×10^5 cells/well in assay media (RPMI 1640 plus 10% fetal bovine serum) in 96-well, round-bottom tissue culture plates. Total human PBMC (peripheral blood mononuclear cells) were thawed from a frozen vial collected from a leukapherisis donation and washed two times with 1×PBS before being plated out at 10^6 cells/well in assay media in 96-well, round-bottom tissue culture plates. […] Following pre-incubation, treatments were added to the plates containing the cells and incubated together at 37° C. for 15 minutes.
(§2) Following incubation, cells were washed with ice-cold wash buffer (BIO-PLEX Cell Lysis Kit, BIO-RAD Laboratories, Hercules, Calif.) and put on ice to stop the reaction according to manufacturer's instructions. […]
(§3) Capture beads (BIO-PLEX Phospho-Stat3 Assay, BIO-RAD Laboratories) were combined with 50 μL of 1:1 diluted lysates and added to a 96-well filter plate according to manufacture's instructions (BIO-PLEX Phosphoprotein Detection Kit, BIO-RAD Laboratories). […] After the final wash, beads were resuspended in 125 μL/well of bead suspension buffer, shaken for 30 seconds, and read on an array reader (BIO-PLEX, BIO-RAD Laboratories) according to the manufacture's instructions. Data were analyzed using analytical software (BIO-PLEX MANAGER 3.0, BIO-RAD Laboratories). […]

muIL-27 = target: T2, muIL-27 (Mus musculus, UniProt O35228+Q8K3I6); test: as above; type: cell-based; conditions: ligand muIL-27 at EC90 (2 nM)
T2 construct: purchased R&D Systems
T2 sequence (Q8K3I6 29-234): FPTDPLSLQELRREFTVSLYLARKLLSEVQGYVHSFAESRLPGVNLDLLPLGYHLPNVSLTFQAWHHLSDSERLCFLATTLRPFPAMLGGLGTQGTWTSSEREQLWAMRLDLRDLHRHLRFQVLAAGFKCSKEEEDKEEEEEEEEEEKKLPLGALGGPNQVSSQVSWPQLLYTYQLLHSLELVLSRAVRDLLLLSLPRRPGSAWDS
T2 sequence (O35228 19-228): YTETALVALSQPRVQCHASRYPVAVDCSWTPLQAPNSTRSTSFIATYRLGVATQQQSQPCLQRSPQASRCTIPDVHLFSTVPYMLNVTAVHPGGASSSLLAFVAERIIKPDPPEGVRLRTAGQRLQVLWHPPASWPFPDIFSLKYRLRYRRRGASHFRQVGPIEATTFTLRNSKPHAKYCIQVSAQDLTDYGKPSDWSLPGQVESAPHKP
Excerpt: as §1, §2, §3

B1: IL-27RAm(mFc1): Extracellular domain of mouse IL27RA fused to a wild type BALB/c mouse gamma2a constant region Fc tag (protein)
chain: MNRLERVALARLETPRLEGLLELELESLEMSLELELEGTRPRHGSPRGPRLEQCYSVGPRLEGILENCSWGLPRLEGDLEGLTPRPRVLEYHQSQKYHPRNRVWGLVKVPRSKQSWVTIPRRGLQFTMADKLELEIWGTQKGRPRLEWSSVSVASNLEGLTQMKPRDTPRQIFSQVASPISGLGLATLEGLATVQWAPRPRVWPRPRQKALETCQFRYKGLCQAGLAWTRLEGLPRQLEKTDGLETPRVGLMQNLEGLPRGTCYQVSGRCQVGLNGYPRWGGLWSSPRLESFQTPRFLEDPRGLDVWVSGTVCGLTSGKRAALELEVWKDPRRPRCVQVTYTVWFGAGDITTTQGLGLVPRCCKSPRVPRAWMGLWAVVSPRGNSTSWVPRPRTNLESLEVCLEAPRGLSAPRCDVGVSSADGSPRGIKVTWKQGTARGSPRLEGLYVVASPWAQDGDSLEDKLENWTRLEPRPRGNLESTLELEPRGGLFKGGVPRYRITVTAVYSGGLEAAAPRSVWGFRGLGLLEVPRLEAGPRAVWRLEPRDDPRPRGTPRVVALAWGGLVPRRHQLERGQATHYTFCIQSRGLESTVCRNVSSQTQTATLEPRNLEHSGSFKLEWVTVSTVALAGQGPRPRGPRDLESLEHLEPRDNRIRWKALEPRWFLESLEWGLELELEMGCGLESLEASTRCLEQARCLEHWRHKLELEPRQWIWGLRVPRDPRANSNSGQPRYIKGLVSLEPRQPRPRKDGPRILEGLVGLGLVGLLEQPRVVGLSPRKASAPRIYSGYGLKHFLEPRTPRGLGLLEGLELEV
modifications: left off: a dimerising Fc or GST
notes: Extracellular domain of mouse IL27RA fused to a wild type BALB/c mouse gamma2a constant region Fc tag
Work on B1 yielded an IC50 (huIL-27) of 1370 nM and an IC50 (muIL-27) of 4.83 nM.
